In experiment [1] the target is T1, Human Fcγ receptor IIIb (human, UniProt O75015 20-208, limits assumed).
T1 construct: Bought protein; also called Fcγ RIIIb
Kind of experiment: SPR (Biacore T200), His-tagged FcγR captured via anti-His IgG, antibody as analyte, steady-state. As for the experimental part: (§1) Binding assays were performed on a Biacore T200 instrument (Cytiva) at 25° C. using assay buffer HBS EP+supplemented with 500 mM NaCl. Fcγ receptors were captured via anti-penta his-tag IgGs (“His capture kit”, Order No. 2895056, Cytiva) covalently amine coupled to a Series S CM5 sensor chip (Cytiva). The amine coupling was carried out according to the manufacturer's instructions using 1-ethyl-3-(3-dimethylaminopropyl) carbodiimide hydrochloride (EDC), N-hydroxysuccinimide (NHS) and ethanolamine HCl, pH 8.5 (“Amine Coupling Kit” BR-1000-50, Cytiva.). Human Fcγ receptor I (R&D Systems, Order No. 1257-FC), Fcγ receptor IIa (R&D Systems, Order No. 1330-CD/F), Fcγ receptor IIb/c (R&D Systems, Order No. 1875-CD), Fcγ receptor IIIa (R&D Systems, Order No. 4325-FC) and Fcγ receptor IIIb (R&D Systems, Order No. 1597-FC) were captured to ˜30 RU.
(§2) Anti-CEACAM6 engineered antibodies were used as analytes in a concentration series from 0.04-25 μM in multi cycle kinetics mode. The sensor surface was regenerated with glycine pH 1.5 after each analyte injection. Obtained sensorgrams were double referenced (subtraction of reference flow cell signal and buffer injection) and were fitted to a 1:1 Langmuir binding model to derive steady-state affinity data using the Biacore T200 Evaluation software.

The target in experiment [2] is T2, Human Fcγ receptor IIa (human, UniProt P12318 36-218, limits assumed).
T2 construct: Bought protein; also called Fcγ RIIa
T2 sequence (looked up): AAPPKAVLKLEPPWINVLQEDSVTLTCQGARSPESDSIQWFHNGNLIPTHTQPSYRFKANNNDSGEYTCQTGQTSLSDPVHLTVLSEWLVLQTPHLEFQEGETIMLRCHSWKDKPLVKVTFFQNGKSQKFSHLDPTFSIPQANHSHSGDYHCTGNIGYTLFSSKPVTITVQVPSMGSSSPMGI
The experiment is described as above. As for the experimental part:
as §1, §2

Experiment [3] concerns the target T3, Human Fcγ receptor IIb/c (human, UniProt P31994 46-217).
T3 construct: Bought protein; also called Fcγ RIIb/c
T3 sequence (looked up): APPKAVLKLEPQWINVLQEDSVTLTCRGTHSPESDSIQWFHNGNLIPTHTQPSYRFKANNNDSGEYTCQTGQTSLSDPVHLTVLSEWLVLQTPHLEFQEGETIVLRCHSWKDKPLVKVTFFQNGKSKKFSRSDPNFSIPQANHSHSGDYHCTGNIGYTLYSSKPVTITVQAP
The experiment is described as above. As to the method:
as §1, §2

Experiment [4] has as its target T4, Human Fcγ receptor I (human, UniProt P12314 16-288).
T4 construct: Bought protein; also called Fcγ RI
Kind of experiment: SPR (Biacore T200), His-tagged FcγR captured via anti-His IgG, antibody as analyte 0.04-25 µM, steady-state affinity. As for the experimental part: as §1, §2
A general note: In SPR one partner is held on a chip, and binding of the other changes the refractive index at the surface.

Experiment [5] deals with T5, Human Fcγ receptor IIIa (human, UniProt P08637 17-208, limits assumed).
T5 construct: Bought protein; also called Fcγ RIIIa
Description: SPR (Biacore T200), His-tagged FcγR captured via anti-His IgG, antibody as analyte 0.04-25 µM, steady-state affinity; clear binding response. As to the method:
as §1, §2

For experiment [6], the target named is T6, human CEACAM6 (carcinoembryonic antigen-related cell adhesion molecule 6) (human, UniProt P40199 35-320).
T6 sequence: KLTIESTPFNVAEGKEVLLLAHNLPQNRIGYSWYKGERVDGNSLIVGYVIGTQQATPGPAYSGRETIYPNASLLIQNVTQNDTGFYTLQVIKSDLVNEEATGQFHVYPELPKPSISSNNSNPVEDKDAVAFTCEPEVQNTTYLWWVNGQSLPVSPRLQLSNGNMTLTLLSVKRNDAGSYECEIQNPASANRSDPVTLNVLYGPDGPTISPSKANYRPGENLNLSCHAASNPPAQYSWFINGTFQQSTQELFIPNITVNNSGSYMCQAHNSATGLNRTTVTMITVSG
Description: cell-based or functional assay.

In experiment [7] the target is T4, Human Fcγ receptor I. Description: SPR (Biacore T200), His-tagged FcγR captured via anti-His IgG, antibody as analyte, steady-state. As for the experimental part:
as §1, §2

Experiment [8] deals with T1, Human Fcγ receptor IIIb. Description: SPR (Biacore T200), His-tagged FcγR captured via anti-His IgG, antibody as analyte, steady-state affinity. As for the experimental part:
as §1, §2

The target of experiment [9] is T4, Human Fcγ receptor I. The description is as above. As to the method: as §1, §2
Experiment [10] has as its target T2, Human Fcγ receptor IIa. The description is as above. As for the experimental part: as §1, §2
For experiment [11], the target named is T3, Human Fcγ receptor IIb/c. The experiment is described as above. As to the method:
as §1, §2

Experiment [12] addresses T5, Human Fcγ receptor IIIa. The experiment is described as above. As to the method: as §1, §2
For experiment [13], the target named is T2, Human Fcγ receptor IIa. Description: SPR (Biacore T200), His-tagged FcγR captured via anti-His IgG, antibody as analyte 0.04-25 µM, steady-state affinity. As for the experimental part:
as §1, §2

Experiment [14] deals with T5, Human Fcγ receptor IIIa. The description is as above. As for the experimental part: as §1, §2
Experiment [15] deals with T1, Human Fcγ receptor IIIb. Kind of experiment: SPR (Biacore T200), His-tagged FcγR captured via anti-His IgG, antibody as analyte 0.04-25 µM, steady-state affinity; clear binding response. As for the experimental part:
as §1, §2

Experiment [16] concerns the target T3, Human Fcγ receptor IIb/c. The experiment is described as above. As for the experimental part: as §1, §2
The target of experiment [17] is T4, Human Fcγ receptor I. Description: SPR (Biacore T200), His-tagged FcγR captured via anti-His IgG, antibody as analyte 0.04-25 µM, steady-state affinity; Table 3 experiment (engineered Fc variants), steady-state affinity. As to the method:
as §1, §2

Experiment [18] addresses T5, Human Fcγ receptor IIIa. Kind of experiment: SPR (Biacore T200), His-tagged FcγR captured via anti-His IgG, antibody as analyte, steady-state. As for the experimental part:
as §1, §2

T5 sequence (P08637 17-208 limits assumed): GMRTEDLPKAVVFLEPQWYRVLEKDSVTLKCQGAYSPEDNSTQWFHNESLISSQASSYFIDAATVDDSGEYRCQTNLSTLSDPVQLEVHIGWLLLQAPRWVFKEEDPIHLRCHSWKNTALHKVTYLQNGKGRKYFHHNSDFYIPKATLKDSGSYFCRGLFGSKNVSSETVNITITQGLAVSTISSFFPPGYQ
T4 sequence (P12314 16-288 limits assumed): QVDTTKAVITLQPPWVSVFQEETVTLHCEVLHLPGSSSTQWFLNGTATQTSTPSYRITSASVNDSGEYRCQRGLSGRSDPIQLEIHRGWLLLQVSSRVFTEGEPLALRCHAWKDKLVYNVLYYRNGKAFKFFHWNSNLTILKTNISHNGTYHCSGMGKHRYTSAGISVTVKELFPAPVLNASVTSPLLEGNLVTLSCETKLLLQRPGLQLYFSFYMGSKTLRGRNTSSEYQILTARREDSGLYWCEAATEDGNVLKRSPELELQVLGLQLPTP
T1 sequence (O75015 20-208 limits assumed): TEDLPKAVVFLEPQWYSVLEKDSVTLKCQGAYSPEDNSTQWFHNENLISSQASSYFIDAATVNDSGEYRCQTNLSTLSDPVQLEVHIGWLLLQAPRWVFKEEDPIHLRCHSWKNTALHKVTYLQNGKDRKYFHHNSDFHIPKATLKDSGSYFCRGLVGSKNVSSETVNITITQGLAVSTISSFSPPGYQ

B1: CEACAM6-Human IgG1-LALA (TPP-19919) (antibody)
heavy: not shown
light: DIQLTQSPSFLSASVGDRVTITCKASQNVGTAVAWYQQKPGKAPKLLIYSASNRYTGVPSRFSGSGSGTEFTLTISSLQPEDFATYYCQQYSSYPLTFGGGTKVEIKRTVAAPSVFIFPPSDEQLKSGTASVVCLLNNFYPREAKVQWKVDNALQSGNSQESVTEQDSKDSTYSLSSTLTLSKADYEKHKVYACEVTHQGLSSPVTKSFNRGEC
notes: Human IgG1 with L234A/L235A (EU numbering)
With B1, the binding result with Human Fcγ receptor IIIb [1], with Human Fcγ receptor IIa [2] and with Human Fcγ receptor IIb/c [3] was “no binding (tested: 0.04-25 µM)” throughout. Besides, the Kd (usually the free concentration of one partner at which half of the binding sites on the other are occupied at equilibrium, for simple one-to-one binding) was 3.7 µM in the experiment with Human Fcγ receptor I [4] and over 25 µM with Human Fcγ receptor IIIa [5].

B2: CEACAM6-Human IgG2 (TPP-3310) (antibody)
heavy: QVTLRESGPALVKPTQTLTLTCTFSGFSLSTYGIGVGWIRQPPGKALEWLAHIWWNDNKYYSTSLKTRLTISKDTSKNQVVLTMTNMDPVDTATYYCARISLPYFDYWGQGTTLTVSSASTKGPSVFPLAPCSRSTSESTAALGCLVKDYFPEPVTVSWNSGALTSGVHTFPAVLQSSGLYSLSSVVTVPSSNFGTQTYTCNVDHKPSNTKVDKTVERKCCVECPPCPAPPVAGPSVFLFPPKPKDTLMISRTPEVTCVVVDVSHEDPEVQFNWYVDGVEVHNAKTKPREEQFNSTFRVVSVLTVVHQDWLNGKEYKCKVSNKGLPAPIEKTISKTKGQPREPQVYTLPPSREEMTKNQVSLTCLVKGFYPSDIAVEWESNGQPENNYKTTPPMLDSDGSFFLYSKLTVDKSRWQQGNVFSCSVMHEALHNHYTQKSLSLSPG
light: B1 light
notes: Human IgG2; expressed in HEK293 cells
As for B2, in [6], the “TILs IFNgamma production (co-culture with HCC2935 tumor cells), EC50” value was 0.7 µg/mL. The “TILs mediated HCC2935 killing (xCELLigence impedance assay), EC50” value in experiment [6] was found to be 0.4 µg/mL. For the same molecule, the “survivin specific T cells IFNgamma production (co-culture with HCC2935 tumor cells), EC50” value in experiment [6] was determined as 0.5 µg/mL. Besides, the binding result in the experiment with Human Fcγ receptor IIIb [1], with Human Fcγ receptor I [7] and in the experiment with Human Fcγ receptor IIa [2] was “no binding (tested: Highest concentration used was 16 µM)” throughout.

B3: CEACAM6-Human IgG1 (TPP-5468) (antibody)
heavy: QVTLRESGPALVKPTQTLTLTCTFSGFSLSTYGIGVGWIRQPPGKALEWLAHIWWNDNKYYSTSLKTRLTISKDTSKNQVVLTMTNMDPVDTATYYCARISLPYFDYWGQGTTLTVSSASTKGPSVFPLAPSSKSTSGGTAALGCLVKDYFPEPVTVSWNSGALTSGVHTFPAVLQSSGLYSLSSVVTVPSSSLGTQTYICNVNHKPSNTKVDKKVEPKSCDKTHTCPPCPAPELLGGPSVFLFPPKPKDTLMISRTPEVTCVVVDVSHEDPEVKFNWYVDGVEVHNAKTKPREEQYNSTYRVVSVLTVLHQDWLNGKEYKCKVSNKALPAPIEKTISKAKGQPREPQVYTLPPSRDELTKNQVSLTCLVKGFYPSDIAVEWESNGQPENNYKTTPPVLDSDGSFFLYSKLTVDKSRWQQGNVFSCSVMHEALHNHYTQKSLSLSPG
light: B1 light
notes: expressed in HEK293 cells; also called hIgG1; anti-CEACAM6 human IgG1 format
As to B3, the Kd was found to be 7.4 µM in the experiment with Human Fcγ receptor IIIb [8]; 0.32 µM in the experiment with Human Fcγ receptor I [9]; 7.3 µM with Human Fcγ receptor IIa [10]; 11 µM with Human Fcγ receptor IIb/c [11]; 1 µM in the experiment with Human Fcγ receptor IIIa [12]; 21 µM with Human Fcγ receptor IIa [13]. Also, the Kd in the experiment with Human Fcγ receptor IIIa [14] is 4.9 µM; with Human Fcγ receptor IIIb [15] it was over 25 µM; with Human Fcγ receptor IIb/c [16] it was over 25 µM; with Human Fcγ receptor I [17] it was 0.016 µM.

B4: CEACAM6-Human IgG1-LALAaglyco (TPP-21518) (antibody)
heavy: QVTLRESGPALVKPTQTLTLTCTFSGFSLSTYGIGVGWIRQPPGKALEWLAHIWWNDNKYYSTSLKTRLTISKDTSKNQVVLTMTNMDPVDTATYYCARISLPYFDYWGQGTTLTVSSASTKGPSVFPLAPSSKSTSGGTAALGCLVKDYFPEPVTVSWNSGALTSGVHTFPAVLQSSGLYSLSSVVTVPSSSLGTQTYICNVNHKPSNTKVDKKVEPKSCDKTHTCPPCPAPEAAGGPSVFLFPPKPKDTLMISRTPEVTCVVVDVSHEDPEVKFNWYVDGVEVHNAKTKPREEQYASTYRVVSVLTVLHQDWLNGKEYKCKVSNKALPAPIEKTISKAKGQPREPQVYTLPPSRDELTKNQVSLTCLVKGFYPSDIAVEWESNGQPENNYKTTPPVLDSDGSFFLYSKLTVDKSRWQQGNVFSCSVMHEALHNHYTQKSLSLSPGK
light: B1 light
notes: Human IgG1 with L234A/L235A/N297A (EU numbering); also called IgG1 LALAaglyco anti-CEACAM6 antibody
Consider B4, for which, in experiment [6], the “TILs IFNgamma production (co-culture with HCC2935 tumor cells), EC50” value was found to be 0.5 µg/mL. Also, in experiment [6], the “TILs mediated HCC2935 killing (xCELLigence impedance assay, 100 h), EC50” value turned out to be 0.43 µg/mL. In addition, the “survivin specific T cells IFNgamma production (co-culture with HCC2935 tumor cells), EC50” value in experiment [6] was found to be 0.55 µg/mL. For the same molecule, the binding result with Human Fcγ receptor IIIb [1], with Human Fcγ receptor I [7], with Human Fcγ receptor IIa [2], with Human Fcγ receptor IIb/c [3] and with Human Fcγ receptor IIIa [18] was “no binding (tested: 0.04-25 µM)” in each case.

B5: CEACAM6-Human IgG1-aglyco (TPP-10914) (antibody)
heavy: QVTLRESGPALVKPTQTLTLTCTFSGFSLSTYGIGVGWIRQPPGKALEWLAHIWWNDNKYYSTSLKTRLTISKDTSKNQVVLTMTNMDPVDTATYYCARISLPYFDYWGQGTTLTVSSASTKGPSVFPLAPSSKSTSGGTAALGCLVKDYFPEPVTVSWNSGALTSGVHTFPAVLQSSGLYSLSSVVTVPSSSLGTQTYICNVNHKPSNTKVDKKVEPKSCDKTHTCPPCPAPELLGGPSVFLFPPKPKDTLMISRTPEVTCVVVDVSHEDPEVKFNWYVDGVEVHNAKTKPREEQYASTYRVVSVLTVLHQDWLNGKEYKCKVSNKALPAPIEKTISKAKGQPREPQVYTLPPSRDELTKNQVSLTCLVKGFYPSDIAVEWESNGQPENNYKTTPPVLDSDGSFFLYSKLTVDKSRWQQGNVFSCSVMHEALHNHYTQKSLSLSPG
light: B1 light
notes: Human IgG1 with N297A (EU numbering), aglycosylated
With B5, the binding result in the experiment with Human Fcγ receptor IIIb [1], with Human Fcγ receptor IIa [2], with Human Fcγ receptor IIb/c [3] and with Human Fcγ receptor IIIa [18] was “no binding (tested: 0.04-25 µM)” in each case. This molecule also registered a Kd in the experiment with Human Fcγ receptor I [4] of 1.2 µM.

Values taken from patent publication US20240368280A1 (DEUTSCHES KREBSFORSCHUNGSZENTRUM STIFTUNG DES FFENTLICHEN …, published 2024).
